According to the supplement of paper PMC10567573:

B1: KRT71 (parent)
chain: ELRNVQDVVEDYKKRYEEEINKRT
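Also: lentivirally expressed fusions sorted by FACS into six bins by GFP to DsRed ratio, PSI derived from sequencing read proportions per bin multiplied by bin number.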

Variants of: B1
Test: protein stability index of a GFP-peptide fusion (GPS, HEK-293T) (PSI 1-6); higher = more stable
Details: c terminus: a fixed tail appended
ELRNVQDVVEDYKKRYEEECNKRT gave a protein stability index of 4.07.
In the case of ELRNVQDVVEDYKKRYEEENNKRT, the protein stability index is reported as 4.
Work on ELRNVQDVVEDYKKRYEEEQNKRT yielded a protein stability index of 3.74.
Variant ELRNVQDVVEDYKKRYEEETNKRT has a protein stability index of 3.65.
ELRNVQDVVEDYKKRYEEEMNKRT showed a protein stability index of 4.12.
Variant ELRNVQDVVEDYKKRYEEERNKRT has a protein stability index of 3.22.
ELRNVQDVVEDYKKRYEEEENKRT gave a protein stability index of 3.6.
For ELRNVQDVVEDYKKRYEEEYNKRT, the protein stability index was 3.15.
With ELRNVQDVVEDYKKRYEEEANKRT the protein stability index was 4.88.
For ELRNVQDVVEDYKKRYEEELNKRT, the protein stability index was 4.32.
For ELRNVQDVVEDYKKRYEEEVNKRT, the protein stability index was 4.2.
Work on ELRNVQDVVEDYKKRYEEEPNKRT yielded a protein stability index of 3.71.
Work on ELRNVQDVVEDYKKRYEEEWNKRT yielded a protein stability index of 3.2.
ELRNVQDVVEDYKKRYEEESNKRT showed a protein stability index of 4.25.
ELRNVQDVVEDYKKRYEEEHNKRT showed a protein stability index of 4.07.
For ELRNVQDVVEDYKKRYEEEGNKRT, the protein stability index was 4.05.
In the case of ELRNVQDVVEDYKKRYNEEINKRT, the protein stability index is reported as 4.29.
Work on ELRNVQDVVEDYKKRYMEEINKRT yielded a protein stability index of 3.02.
ELRNVQDVVEDYKKRYVEEINKRT showed a protein stability index of 3.93.
With ELRNVQDVVEDYKKRYSEEINKRT the protein stability index was 3.86.
ELRNVQDVVEDYKKRYIEEINKRT showed a protein stability index of 3.57.
In the case of ELRNVQDVVEDYKKRYTEEINKRT, the protein stability index is reported as 3.45.
For ELRNVQDVVEDYKKRYLEEINKRT, the protein stability index was 4.43.
ELRNVQDVVEDYKKRYGEEINKRT showed a protein stability index of 3.1.
ELRNVQDVVEDYKKRYYEEINKRT gave a protein stability index of 3.15.
For ELRNVQDVVEDYKKRYREEINKRT, the protein stability index was 4.12.
With ELRNVQDVVEDYKKRYWEEINKRT the protein stability index was 3.87.
Work on ELRNVQDVVEDYKKRYKEEINKRT yielded a protein stability index of 3.24.
In the case of ELRNVQDVVEDYKKRYQEEINKRT, the protein stability index is reported as 3.8.
Work on ELRNVQDVVEDYKKRYFEEINKRT yielded a protein stability index of 3.93.
ELRNVQDVVEDYKKRYCEEINKRT showed a protein stability index of 3.24.
Work on ELRNVQDVVEDYKKRYAEEINKRT yielded a protein stability index of 2.84.
Variant ELRNVQDVVEDYKKRYDEEINKRT has a protein stability index of 3.23.
ELRNVQDVVEDYKKRYEGEINKRT showed a protein stability index of 3.16.
In the case of ELRNVQDVVEDYKKRYEQEINKRT, the protein stability index is reported as 3.3.
ELRNVQDVVEDYKKRYEYEINKRT gave a protein stability index of 3.85.
Work on ELRNVQDVVEDYKKRYEREINKRT yielded a protein stability index of 4.26.
Variant ELRNVQDVVEDYKKRYENEINKRT has a protein stability index of 3.31.
ELRNVQDVVEDYKKRYEDEINKRT gave a protein stability index of 3.48.
For ELRNVQDVVEDYKKRYEAEINKRT, the protein stability index was 3.54.
In the case of ELRNVQDVVEDYKKRYECEINKRT, the protein stability index is reported as 4.57.
Work on ELRNVQDVVEDYKKRYEPEINKRT yielded a protein stability index of 3.98.
ELRNVQDVVEDYKKRYEIEINKRT showed a protein stability index of 3.07.
Variant ELRNVQDVVEDYKKRYEWEINKRT has a protein stability index of 3.11.
For ELRNVQDVVEDYKKRYESEINKRT, the protein stability index was 3.23.
For ELRNVQDVVEDYKKRYELEINKRT, the protein stability index was 2.91.
In the case of ELRNVQDVVEDYKKRYEKEINKRT, the protein stability index is reported as 3.03.
With ELRNVQDVVEDYKKRYETEINKRT the protein stability index was 3.93.
For ELRNVQDVVEDYKKRYEFEINKRT, the protein stability index was 3.42.
For ELRNVQDVVEDYKKRYEEEIAKRT, the protein stability index was 4.15.
Work on ELRNVQDVVEDYKKRYEEEIHKRT yielded a protein stability index of 4.26.
Variant ELRNVQDVVEDYKKRYEEEIGKRT has a protein stability index of 3.77.
ELRNVQDVVEDYKKRYEEEIVKRT gave a protein stability index of 4.3.
Variant ELRNVQDVVEDYKKRYEEEIYKRT has a protein stability index of 3.65.
Work on ELRNVQDVVEDYKKRYEEEICKRT yielded a protein stability index of 3.73.
For ELRNVQDVVEDYKKRYEEEIDKRT, the protein stability index was 3.8.
ELRNVQDVVEDYKKRYEEEIKKRT showed a protein stability index of 4.54.
ELRNVQDVVEDYKKRYEEEIMKRT gave a protein stability index of 2.79.
ELRNVQDVVEDYKKRYEEEISKRT gave a protein stability index of 4.27.
ELRNVQDVVEDYKKRYEEEIRKRT gave a protein stability index of 3.92.
In the case of ELRNVQDVVEDYKKRYEEEIFKRT, the protein stability index is reported as 3.55.
Variant ELRNVQDVVEDYKKRYEEEITKRT has a protein stability index of 2.89.
In the case of ELRNVQDVVEDYKKRYEEEIQKRT, the protein stability index is reported as 3.51.
Work on ELRNVQDVVEDYKKRYEEEILKRT yielded a protein stability index of 3.83.
In the case of ELRNVQDVVEDYKKRYEEEIIKRT, the protein stability index is reported as 1.94.
ELRNVQDVVEDYKKRYEENINKRT gave a protein stability index of 2.71.
ELRNVQDVVEDYKKRYEESINKRT showed a protein stability index of 3.69.
ELRNVQDVVEDYKKRYEECINKRT showed a protein stability index of 3.9.
With ELRNVQDVVEDYKKRYEEKINKRT the protein stability index was 3.21.
ELRNVQDVVEDYKKRYEEVINKRT showed a protein stability index of 3.48.
ELRNVQDVVEDYKKRYEETINKRT gave a protein stability index of 4.16.
For ELRNVQDVVEDYKKRYEEPINKRT, the protein stability index was 4.28.
In the case of ELRNVQDVVEDYKKRYEEAINKRT, the protein stability index is reported as 3.94.
ELRNVQDVVEDYKKRYEEDINKRT showed a protein stability index of 3.24.
ELRNVQDVVEDYKKRYEEFINKRT gave a protein stability index of 3.36.
ELRNVQDVVEDYKKRYEEQINKRT gave a protein stability index of 2.54.
In the case of ELRNVQDVVEDYKKRYEEYINKRT, the protein stability index is reported as 2.88.
With ELRNVQDVVEDYKKRYEEWINKRT the protein stability index was 2.92.
Work on ELRNVQDVVEDYKKRYEEHINKRT yielded a protein stability index of 3.73.
ELRNVQDVVEDYKKRYEEIINKRT gave a protein stability index of 3.39.
In the case of ELRNVQDVVEDYKKRYEERINKRT, the protein stability index is reported as 4.11.
Variant ELRNVQDVVEDYKKRYEEGINKRT has a protein stability index of 3.65.
In the case of ELRNVQDVVEDYKKRYEEMINKRT, the protein stability index is reported as 2.73.
Work on ELRNVQDVVEDYKKRYEEEINKQT yielded a protein stability index of 3.83.
Variant ELRNVQDVVEDYKKRYEEEINKET has a protein stability index of 4.63.
ELRNVQDVVEDYKKRYEEEINKNT gave a protein stability index of 4.11.
In the case of ELRNVQDVVEDYKKRYEEEINKCT, the protein stability index is reported as 3.84.
For ELRNVQDVVEDYKKRYEEEINKLT, the protein stability index was 3.63.
For ELRNVQDVVEDYKKRYEEEINKMT, the protein stability index was 3.03.
With ELRNVQDVVEDYKKRYEEEINKTT the protein stability index was 4.69.
For ELRNVQDVVEDYKKRYEEEINKST, the protein stability index was 4.27.
Work on ELRNVQDVVEDYKKRYEEEINKIT yielded a protein stability index of 3.72.
With ELRNVQDVVEDYKKRYEEEINKFT the protein stability index was 3.71.
ELRNVQDVVEDYKKRYEEEINKAT showed a protein stability index of 3.34.
